{
  "source": "patent US9744212B2",
  "about": "“Galectin-3C combination therapy for human cancer” (Texas Tech University System, priority 2011, dated 2017)",
  "molecules": {"B1": {"name": "Gal-3C: N-terminally truncated human galectin-3 consisting of 143 carboxy-terminal amino acid residues, SEQ ID NO: 1 (protein)", "chain": "GAPAGPLIVPYNLPLPGGVVPRMLITILGTVKPNANRIALDFQRGNDVAFHFNPRFNENNRRVIVCNTKLDNNWGREERQSVFPFESGKPFKIQVLVEPDHFKVAVNDAHLLQYNHRVKKLNEISKLGISGDIDITSASYTMI"}},
  "format_in_all_cases": "cell-based, human",
  "key": {"[1]": {"tested_on": "VEGF", "experiment": "ELISA of VEGF in U266 cell-conditioned medium", "details": "48-hour culture with 10 μg/mL Gal-3C, 5 nM Bor or both", "experimental": "ELISA of VEGF and bFGF Levels. The levels of VEGF and bFGF were measured by direct ELISA as follows. Flat-bottom 96-well polycarbonate plates were coated at 4° C. with 50 μL/well cell culture supernatants diluted 1:25 in carbonate coating buffer (0.1 M NaHCO3, […]) at 4° C. overnight. Standard curves were obtained with purified recombinant human VEGF and bFGF (both from R&D Systems) serially diluted in coating buffer (10-fold serial dilutions from 1,000 to 0 ng/mL). After removing diluted supernatants or standards, and blocking with PBS supplemented with 1% W/V BSA for 1 hour at room temperature, plates were incubated for 1 hour at room temperature with mouse anti-human VEGF or rabbit anti-human bFGF primary antibodies (2 μg/mL in PBS, 50 μL/well Abeam, Mass., USA). Then, plates were washed twice with PBS with 0.025% V/V Tween-20 (300 μL/well) and incubated at room temperature with anti-mouse or anti-rabbit HRP-labeled secondary antibodies (0.2 μg/mL in PBS, 50 μL/well Abeam, Mass., USA) for 1 hour. The plates were washed thrice with PBS containing 0.025% V/V Tween-20 (300 μL/well), the TMB colorimetric substrate (Thermo Fisher Scientific, Waltham, Mass., USA) was added, and after 5 minutes the absorbance was measured (0.1 s) at 450 nm on a Victor 2 multimodal microplate reader (PerkinElmer, Billerica, Mass., USA). All samples were run in triplicates. […]"}, "[2]": {"tested_on": "HUVEC", "experiment": "HUVEC tubule formation assay on Matrigel with U266 conditioned media", "details": "20% V/V conditioned medium of U266 treated 48 h with 10 μg/mL Gal-3C, 5 nM Bor or both; 16-hour incubation", "experimental": "HUVEC Tubule Formation Assay. A tubule formation assay was performed in vitro as described (86) to measure angiogenesis. Briefly, growth factor-reduced Matrigel (Becton Dickinson) was allowed to polymerize in the presence of 30 ng/mL recombinant basic fibroblastic growth factor (bFGF; R&D Systems) for 1 hour at 37° C.\nFIG. 5 is an image of the results from the In vitro tubule formation assay having 6 regions. Serum-starved HUVEC were allowed to form tubules on a […]™ surface in the presence of VEGF (positive control), EMB-2 medium alone (negative control), or EBM-2 supplemented with 20% V/V U266 conditioned media (c.m.). […] To evaluate the effect of different treatments on the ability of U266 cells to induce angiogenesis, a […]™-based tubule formation assay was performed in the presence of U266 conditioned media as described for the chemotaxis assay. Serum-starved (5×103) HUVEC were seeded on the […]™ surface in 200-μL EBM-2 medium supplemented with 20% V/V conditioned medium. Pictures were taken after 16-hour incubation in 5% CO2 at 37° C. The assay was run in triplicate and representative images are depicted in FIG. 5. As a positive control, EBM-2 medium supplemented with 20 ng/mL VEGF was used."}, "[3]": {"tested_on": "MM cell lines (ARP-1, ARK-B, U266, 8226/Dox, MM-1S, MM-RL, NCI-H929, RMPI-8266)", "experiment": "Cell proliferation (viability) assays of MM cell lines", "details": "all eight cell lines, at one or more concentrations (0.5, 1, 2 or 4 μg/ml); 48 hours; P<0.05; magnitude slight", "experimental": "EXAMPLE 3 illustrates Gal-3C inhibits proliferation of MM cells. Cell Proliferation (Viability) Assays. Cell proliferation was assessed with a ViaLight Plus Cell Proliferation and Cytotoxicity BioAssay Kit (Lonza, Walkersville, Md., USA) according to the directions of the manufacturer. In brief, myeloma cells were seeded (8,000 per well) in 50 μL of RPMI-1640 with 10% heat-inactivated FBS (growth medium) in 96-well plates. HUVEC cells were seeded (10,000/well) in 50 μl EGM-2 medium in 96-well plates. Gal-3C (2× concentration) in 50 μL of growth medium was added to triplicate wells and the plate kept at the CO2 incubator at 37° C. for 48 hour. For the ViaLight assay, 50 μL of lysis buffer was added to each well, the plate was incubated for 10 minutes, after which 50 μL of cell lysate from each well was transferred to a solid white Lumitrac-200 plate and 50 μL of reconstituted AMR Plus was added. Luminescence was measured with a 1-s integrated setting in a Berthold luminometer after 2 minutes. […] Fluorescence intensity was measured at 590-nm on a Polarstar Galaxy (BMG Labtech, Cary, N.C.) microplate reader. The blank (growth media with 10 μl Alamar Blue) was subtracted from the raw fluorescence to obtain adjusted fluorescence readings. Triplicate data points were analyzed and the data shown are representative of 3 or more studies. […]"}},
  "data": [
    {"molecule": "B1", "values": [
      {"measurement": "VEGF levels in U266 conditioned medium", "setting": "[1]", "result": "significantly reduced"},
      {"measurement": "potential of U266 cells for induction of angiogenesis (tubule formation)", "setting": "[2]", "result": "almost completely impaired"},
      {"measurement": "proliferation of MM cells", "setting": "[3]", "result": "significantly inhibited"}
    ]}
  ]
}
